From a protein production outcome set (Wang et al. 2014)

Assay: label from the status in PepcDB records

| Sequence | protein production |
| --- | --- |
| MLVSIILVNYNGADILPDCLNSIDKFISKDNCEILLVDNASQDNSYELVAQDFPDVKIVRLPKNYGFGAGNNAGAKIAKGKFLLLLNTDTILTTNILPHLIDLMRENPDVGIIGTKLVFPDETFQISFAYTIGIKGEYKSRKLHEYAEDKSKLNSLEQEFNTIKEVDIVVGAALFIRADLFHSVGGFDEKFFIYFEDADLCRRVQNQGYKILYTPQVSLIHIRGHSMKKNLEHHHHHH | failed |
| MGKDFKSLVTRCIYVGKMNDNAKKLKIATEELKDLGNNVMKRVKLCEEQQQMKRLDKVQTWLRQADTVIKEAEEYFLMSSSSSSSGLISSSHKMEKKICKKLKEVQEIKSRGMFEVVAESTGGIGGGAGGGLTIKDSDEQTIGLEAVSGLVWRCLTMENTGIIGLYGVEGVGKTTVLTQVNNRLLQQKANGFDFVLWVFVSKNLNLQKIQDTIREKIGFLDRTWTSKSEEEKAAKIFEILSKRRFALFLDDVWEKVDLVKAGVPPPDAQNRSKIVFTTCSEEVCKEMSAQTKIKVEKLAWERAWDLFKKNVGEDTIKSHPDIAKVAQEVAARCDGLPLALVTIGRAMASKKTPQEWRDALYILSNSPPNFSGQIS | failed |
| MQVISPSSPAPRFAGKERFSEVYGELNDDFGSKLKISSKEEENRDDDSWWNQNGTDKDDEGREEDFSFASVNADNSPITADEAFEDGQIRPVYPLFNRNIFFDDPEEKTLRSPLKKLFVESTTTEEEEEESDTVGPYCSWTNRTVEQASPETCRKSNSTGFSKLWRFRDLVLRSNSDGKDAFVFLSNGSSSTSSTSSTAARLSGVVKSSEKGKEKTKTDKKKDKMRTKSAHEKLYMRNRAMREEGKRRSYLPYKHVGFFTNVNGLTRNVHPY | failed |
| MNNSVSSGYDVIGDVHGCASQLEVLLHKLGYETGASGEYRHPERQAIFVGDLIDRGGEQLRVLEVVKAMVDAGSALIVMGNHEFNALAYHTEWPVGSGKYLRPHDDPDNPWSAKNTKQHAAFLDQVRGEDRQRCLEWFATIPLWLDLGELRVVHACWHDDSIGVVENLCGSNAPFGDVSHLVAASTEDDPLYEAVETLLKGPEINLVAHGQPEYHDKDGIPRDNARVQWWNSDARTLRDIAEMGGGFTTSTGEPYPPLPEIALTGADRSYIYTAEIPVFYGHYWRQGSPKHRHDWTDYTACVDFSAVKGGRLTAYRWSGESTIKAENYVTAD | failed |
| MQDASAWMLALAGLCVGVTAGFFVRLARLCSFGAVEDALMGGDTRRLRIFGLALGIALLGTQALVIAGQLDPGQSNYTAPALPLISIAIGSVLFGIGMAFVGTCGFGSLVRLGGGDLRSFVVILVLGGAAYATLRGMFSGFRITVLERFAITMPEGVNTDLAALTQHLSGIDLRAVIAALGGGLLCLIALGDKRLRRTPRLLAAGVALGLLTVVGWLATTKLADPFAGPVHPQSLTFVSTVGKAVYAGLLNVANFADFGVGTVFGVIAGAFIAAWHTDELRWEAFDDDHEMRRHVAGAALMGFGGILTGGCTIGQGITAGSVMALSWPIAIVGMMFGARIGIAVLVDGSPRELIRRRFDAWRELLQRRRAPALTAANRPNHRPAAPSDAPRPTAPHSLAE | failed |
| MKQKLLVTLLGLSALGASPVFAANTNVDLAEDAYIYGYSIDEAYKFFYHTAVENNYPLNEFQNRRALADDSYTAHPTINNDTLHLMGWLDVAAEPVIVSVPDMDEGRYWILHTMDMGHYTNAAFSSRTRGTKGGQFMFAAQDWQGEVPASVDEVVRVDSNLVKLMGRIMAVNDEDAKVALNYMDQWNIRTLSEYLGKNGPKPVQRTYPDPKKSTWLERVNFVLCDGSMGNADKQWLDKYQSIGVEPCKTDFTPEQLKLAKVGEKKGMEHLVELAPKMTDARTLLGTRDTLGDAPRDIFAEGTYLGQWGLPPIEASYRKSDFDSIGQKLDGSKHDYVMRFKAPNVSEFWSVTIYGNDNRLMAKNDLNRHSRGDRTMKADKDGYYTIYMSANEKGRADDPNFLPVPEKPFYAIMRFYGADDAIQSGEYQMPEIKVVKLEHHHHHH | not failed |
| MTTGVRRRMGVEERRQQLIGVALDLFSRRSPDEVSIDEIASAAGISRPLVYHYFPGKLSLYEAALQRASDDLADRFVEPRQGPLGARLLRVMGRYFDFVDEHGPGFSALMRGGPAVGSTTTNALVDSVRQAAYVQILSHLDVTEPPARLELVVRSWISLAESTALLWLDGRRIPRAELETQLVHDFAALMAVSAAYDEEMGALVRRVLADEPEDGPFGDLVDRLLALSAR | not failed |
| MGGLTLFAAQGCKAPKQVAEQAEHPNIIYVFPDQYRNQAMGFWNQEGFRDKVNFRGDPVHTPNIDTFARESMVLTSAQSNCPLSSPHRGMLLTGMYPNRSGVPLNCNSTRPISSLRDDAECIGDVFSKAGYDCAYFGKLHADFPTPNDPENPGQYVETQRPVWDAYTPKEQRHGFNYWYSYGTFDEHKNPHYWDTDGKRHDPKEWSPLHESGKVVSYLKNEGNVRDTKKPFFIMVGMNPPHSPYRSLNDCEEQDFNLYKDQPLDSLLIRPNVDLNMKKAESVRYYFASVTGVDRAFGQILEALKQLGLDKNTVVIFASDHGETMCSQRTDDPKNSPYSESMNIPFLVRFPGKIQPRVDDLLLSAPDIMPTVLGLCGLGDSIPSEVQGRNFAPLFFDEKAEIVRPAGALYIQNLDGEKDKDGLVQSYFPSSRGIKTARYTLALYIDRKTKQLKKSLLFDDVNDPYQLNNLPLDENKEVVEQLYREMGTMLKEIDDPWYTEKILSDRIPYLEHHHHHH | failed |
| MHSPLELTLVLLAAAVIGVVLFRMLQLPPMLAYLVVGVVIGPNATGLESDSAQTRYLAEFGVVFLMFSIGLEFSLAKLRSMRRLVLGLGASQVVLTMLLTVPASLLLSRWYPLSWQASLALGGALAMSSTAIVSKMLAERLQLETEHGRNIISVLLFQDLAVVLLLIVVPSLGKNPTDLVLTLSIAAVKIIVALVLILFLGQKLLSRWFHLVAARRSQELFMLNLLLVTLGMAALTERLGLSMALGAFLAGMLVSETPYRLQVEEDIKPFRDVLLGLFFVTVGMLLDPRVVIGHWGLVIGLVIGPVLFKFALIALLARAFGSGGGTAIRTALGLAQAGEFGFVLLNQIDGMRLIDPLLSQAILAAMLLSMLLAPFLIQYSDAIAMRLSRTDWLMQSLAMTKIAAQSLQTERHVIICGYGRSGQNLAHMLEQEDISYVALDLDPDRVRDAAAAGERVVYGDAARRESLVAAGVHRAAAVAVTYADTASALKVLHHVQALAPTLPVIVRTIDDADLDRLQQAGAAEVVPEIIEGSLMLASHALVLLGVPLRRVVRRAQEMRDARYGLLRGYFHGQDDDEDMLERDAVRLHSVPLIKGSPAIGRPLGTLGLETFKTSVTAIRRQGIRALDPEPNTLLELGDIVVLRGTPDGLQQAEERLSPR | failed |
| MHYAFSRIRLRSFFGWMIIGVFLIMIPLDLTNVSENTMEVISQITVFFVFPLLWLYVKTNKNNVVFNSFFDKPGRLSWGLIVLATIMGMIFSVGISQIQFYILAHTLPNFLVTMLEDGNVINTSNVYMTIFTFISACVLAPIMEEVIFRGFFLQRMAYKWGIKKAVIISSIIFGLGHFDVIGAFMFGVVMCLLYIKTKNIWTNIAVHALNNLIATSMQFFGGEESGTISITELQAQSNLWIGIGLTVVGLLWLIPYVWKQWRTVKEVGVPPVRFINEQKVVSSSQENEVYSQVILTDRLMAIELPDEAVNKLRLEENDYVTVSVEEDKIVIKKAHNR | failed |
| MSSRWEGIDEFVAVAESGQFTAAAERLGVSSSHISRQIARLEDRLQTRLLYRSTRRVTLSEAGQTFLQHCQRLQDGREEALRAMGDLASEPKGLLRMTCAVAYGERFIVPLVTRFMALYPQLRVDVELSNHTLDLLHEGMDLAIRLGRLADSRLVATRLAPRRMYLCVSPAYLERYGRPHSLSELARHNCLVGSSDLWALQQDGREISQRVQGNWRCNSGQAVLDAALQGIGLCQLPDYYVLEHLNSGALVSLLEAHQPPNTAVWALYPQQRHLSPKVRRLVDYLKEGLAGLPEYRFG | failed |
| MSLEILTAGPMLTVQDAGRFGLRHMGVSPAGPIDRAAMALANALVGNDPGAAALEFAGPAGRFRCDRPVRFAVAGADCPLRIDARTVSPGESHRLNPGETLTVGVPEGAVWAYLAFSGAIASPEVLGSRATHLRSGVGGRALGAGDRLPLGEDDPEAPCLRPGLRLEAAAPFRETGPIRLILGPQDDHFAPEVIARLTGCDFTVTPQRDRMAMVLGGVELPAERGHDIVSDGTVPGSVQVPGSGTPLVLLAESQTTGGYPKIGTVASVDLARLAQMPVGARFRFALISAREGEDLWIARQAR | failed |
| MKVLLDTNIIVDFLSKRPVFFNEAEKIISKCRDGEIIGIVAVHTVSTLFYLLKKYVSPETLRDIFYNLFEIIEIGRADKNSVLEALKNTEFTDFEDGLQYQCALEEFVDCIITRNKKDFFSSKIPVYTPSEFLKSLLEHHHHHH | failed |
| MNRRDFLQFGLRGIVVAGLGKGFYNTTSEQVEIVRTSVKIRNLPAALQGLKIGLLTDLHASFVVSSETIRSAGRLLMAEKPDLIVMTGDYISGSTRFLSGSVGQFKKEYLSKCIDALSGLKAPLGIYGVLGNHDFWSGPESVKAICEAFTRQMGMVWLRNSSVEIRRGRGSLHLLGVDDYWEPSCSLAAACKGVDTDGIKILLSHNPDINDEIFLLRERIDLVLSGHTHGGQVVVPFLGQPVMPSKFGQKYRAGLVRDGDRQTYISRGVGCLLAPIRLNCPPEATVLTLTLEHHHHHH | not failed |
| MSADHDEGLRRAQRLHLSGDADGAERAYRALLDDAALGAPAAHWLGFLLMQQGRLDEALAWLERVVAADDGHAEWHFNLGLVRARLGRSEEAVFALREAARRDPSRYFYWTNLGAQLMRGGQDAEAEQALRRAASLDPHCPDAFYLLTEMLLRQGRHAEARRCNAQGVLAEPPGKMAPIAVGQALCELGRSEEARSLAQSWLLAQPGHPVARHMLAAFGGGDAPADGDDEYVGCAFDAAAASFDQDLSRLRYQGPSWTAACLAGLSLAPKSLSALDLGCGTGLIGEVLQPWASRLDGVDLSAGMLARAGAKGIYDSLEQAELRAFLRQTDRTYQLIACMDTLPYLGELDALFMLLAERMAPGGLLLFCTESLEDGEAGDGRLHHSGRYRHHSRYLDRLLAVGWDVLERARMPVRDEAGCPVWGDFVCARKVFAA | failed |
| MKGKEIMEIKRILVSRTDKIGDLVLSIPSFFMLKKMYPNAELVVIVRKYNVDIVKNLPYIDRIVIIDEYSKAELLEKIAYFKADVFIALYNDSYIASLARASKAKIKIGPISKLSSFFTYNKGVLQKRSLSLKNEGQYNLDLVTKLDRKRFAILYELNTKLILTDENKKVADVYFKENSIEGKTLVVNPFIGGSAKNITDEQYISILKKIKEKMPDLNIIITSYTTDEERTEKLCKDIGKDKIFAFSNGASILNTASIIDRADVYFGASTGPTHIAGALGKKIVAIYPHKKTQSPTRWGVLGNSNVRYIIPDENNPNEDYKNPYFDNFTKDMEDKVVKAILEALK | failed |
| MYEIKGHHHISMVTKNANENNHFYKNVLGLRRVKMTVNQDDPSMYHLFYGDKTGSPGTELSFFEIPLVGRTYRGTNAITRIGLLVPSEDSLHYWKERFEKFDVKHSEMTTYANRPALQFEDAEGLRLVLLVSNGEKVEHWETWEKSEVPAKHQIQGMGSVELTVRRLDKMASTLTEIFGYTEVSRNDQEAIFQSIKGEAFGEIVVKYLDGPTEKPGRGSIHHLAIRVKNDAELAYWEEQVKQRGFHSSGIIDRFYFKSLYFRESNGILFEIATDGPGFTVDGDVEHLGEKLDLPPFLEDQRAEIEANLAPIEEK | not failed |
| MLYIIGLGLYDEKDITVRGLEAVKSCDLVFLEHYTAILQCDVAKLEEFYGKKVIIGDRDLVETEADQILEPAKTKNVALLVVGDVYGATTHSDIFVRCQKMGIEVKVIHNASIMNAIGCSGLQLYRFGQTVSVCFWSEHWRPSSYYPKIKINRDNNMHTLVLLDIKVKERSEENIIKGRDIFEPPRYMTINQCIEQLLEVEKEQHLGVYDEDTMVVGMARVACADQKIVYGKMKDLLHYDFGAPMHCLLIPAPQVDDPELDHLEYFKYKPE | not failed |
| MVSANREMAVYCFDTLVSHYNNEETPPPAFEEANHPLFVTWKKIVNGGEPRLRGCIGTLEARRLISGFKDYALTSALRDRRFPPIQAKELPSLQCTVSVLTDYEDAEDYLDWEVGKHGIIIEFTEPETNTKRSATYLPEVPAHEGWTKIEAIDSLVRKAGYNGVITEAVRRRINLTRYQSTLFSMHYSEYLSYVKATRGVVGPVINGINKHAFA | failed |
